In patent publication US8071547B2, “Compositions of alpha-fetoprotein and inducers of apoptosis for the treatment of cancer” (Constab Pharmaceutical, Inc., priority 2006, dated 2011):
Where two headings read alike, the source gives them in different places.

Columns and labels:
[1] = in the fetus; cited from earlier work
[2] = test system: cancer cells; settings: literature; cited from earlier work
[3] = test system: cancer cells; assay: Comparison of AFP properties: anticancer activity (Table 1); settings: applicant's studies (Examples 4 to 8)
Excerpt: The present invention involves the use of exogenous alpha-fetoprotein (AFP) acting as a carrier or transporter of apoptosis-inducing agents directly to cancer cells resulting in the apoptosis of the cancer cells. U.S. Pat. Nos. 6,630,445 and 6,534,479 describe the use of recombinant human AFP for conjugation with cytotoxic agents.
(NCBI Blast analysis is available on the world wide web at ncbi.nlm.nih.gov/blast/; Parker, M. H. et al., Protein Expression and Purification, 38:177-183, 2004).

[4] = test system: monoclonal antibody to HAFP; assay: Membrane EIA Alpha-fetoprotein test; assay type: binding; settings: compared to human AFP sample
Description: (§1) PAFP extracted by the methods detailed above was analyzed using two different immune-enzyme kits in order to detect the presence of PAFP in the extraction obtained from the methods detailed above. PAFP samples were compared to AFP isolated from human serum and amniotic fluid. Initially, samples were subjected to the membrane EIA Alpha-fetoprotein test (catalog #410-1, IND Diagnostic Inc., Vancouver, Canada) which incorporates a monoclonal antibody to HAFP. […] A second test kit incorporating a polyclonal antibody to HAFP (catalog number T-8456, AFP-EIA-BEST-Strip, Vector-BEST, Novosibirsk, Russia) was then used to assay the presence of PAFP in the extraction.

[5] = test system: polyclonal antibody to HAFP; assay: AFP-EIA-BEST-Strip test; assay type: binding
Description: as §1

B1: AFP: alpha-fetoprotein, major transport glycoprotein in the fetus (protein, UniProt P02771 19-609, looked up)
Alpha-fetoprotein: RTLHRNEYGIASILDSYQCTAEISLADLATIFFAQFVQEATYKEVSKMVKDALTAIEKPTGDEQSSGCLENQLPAFLEELCHEKEILEKYGHSDCCSQSEEGRHNCFLAHKKPTPASIPLFQVPEPVTSCEAYEEDRETFMNKFIYEIARRHPFLYAPTILLWAARYDKIIPSCCKAENAVECFQTKAATVTKELRESSLLNQHACAVMKNFGTRTFQAITVTKLSQKFTKVNFTEIQKLVLDVAHVHEHCCRGDVLDCLQDGEKIMSYICSQQDTLSNKITECCKLTTLERGQCIIHAENDEKPEGLSPNLNRFLGDRDFNQFSSGEKNIFLASFVHEYSRRHPQLAVSVILRVAKGYQELLEKCFQTENPLECQDKGEEELQKYIQESQALAKRSCGLFQKLGEYYLQNAFLVAYTKKAPQLTSSELMAITRKMAATAATCCQLSEDKLLACGEGAADIIIGHLCIRHEMTPVNPGVGQCCTSSYANRRPCFSSLVVDETYVPPAFSDDKFIFHKDLCQAQGVALQTMKQEFLINLVKQKPQITEEQLEAVIADFSGLLEKCCQGQEQEVCFAEEGQKLISKTRAALGV
**Q.** For B1, which halflife [1] is on record?
**A.** 72 to 120 h

B2: HAFP: human alpha-fetoprotein (protein, UniProt P02771 19-609, looked up)
Alpha-fetoprotein: B1 Alpha-fetoprotein
**Q.** Which “Anticancer activity (AFP-mediated delivery of apoptosis-inducing agent bound to cancer cells)” value [2] does the source give for B2 here?
**A.** Yes

B3: PAFP: porcine alpha-fetoprotein, butanol-extracted from blood and amniotic fluid of embryos of 3 to 14 weeks gestation (protein, UniProt Q8MJ76 19-610, looked up)
Alpha-fetoprotein: RTMHENAYGIASILDSSQCSAEMNLVDLATIFFAQFVQEATYKEVNQMVKDVLTVIEKSTGSEQPAGCLENQVSVFLEEICHEEEIPEKYGLSHCCSQSGEERHNCFLARKKAAPASIPPFQVPEPVTSCKAYEENRELFMTRYIYEIARRHPFLYAPTILSLAAQYDKIIPPCCKAENAVECFQTKAASITKELRESSLLNQHMCTVMRQFGARTFRAITVTKLSQKFPKANFTEIQKLVLDVAHIHEECCRGNVLECLQDAERVVSYVCSQQDTLSSKIAECCKLPTTLELGQCIIHAENDDKPEGLSPNLNRFLGERDFNQLSSREKDLSMARFTYEYSRRHPKLAVPVILRVAKGYQELLEKCSQSENPLECQDKGEEELEKYIQESQALAKRSCGLFQKLGEYYLQNAFLVAYTKKAPQLTPPELMALTRKMATTGAACCHLSEDRQLACGEGAADLIIGQLCIRHEEMPINPGVGQCCTSSYANRRPCFSSLVLDETYVPPPFSDDKFIFHKDLCQAQGVALQTMKQQFLINLVKQKPQITEEQLEAVIADFSGLLEKCCQGQEQEVCFAEEGPALISKTRASLGV
**Q.** Which results are given for B3?
**A.** Anticancer activity (AFP-mediated delivery of apoptosis-inducing agent bound to cancer cells) [3]: Yes; Reaction with EIA Alpha-fetoprotein test kit [4]: did not produce a reaction; Reaction with AFP-EIA-BEST-Strip kit [5]: positive reaction
